Assay in all cases: domain binding ELISA (coated antibody captures the PCSK9 form; OD650)
In general terms: ELISA stands for enzyme-linked immunosorbent assay.

In experiment [1] the target is T1, PCSK9 V domain (450-692 of SEQ ID NO: 3) (human, UniProt Q8NBP7 450-692).
T1 construct: also called v-domain PCSK9
T1 chain: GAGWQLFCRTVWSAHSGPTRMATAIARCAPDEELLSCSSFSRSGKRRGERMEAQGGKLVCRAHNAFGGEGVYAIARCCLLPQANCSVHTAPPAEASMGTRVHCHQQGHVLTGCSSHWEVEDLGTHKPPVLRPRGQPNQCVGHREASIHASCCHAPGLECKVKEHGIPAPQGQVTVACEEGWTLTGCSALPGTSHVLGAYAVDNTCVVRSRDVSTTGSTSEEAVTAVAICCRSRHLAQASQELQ
Description: (§1) Clear, 96 well maxisorp plates (Nunc) were coated overnight with 2 ug/ml of various anti-PCSK9 antibodies diluted in PBS. Plates were washed thoroughly with PBS/0.05% Tween-20 and then blocked for two hours with 3% BSA/PBS.

The target of experiment [2] is T2, PCSK9 ProCat (31-449 of SEQ ID NO: 3) (human, UniProt Q8NBP7 27-449).
T2 construct: From PCSK9 449TEV after rTEV cleavage: GAMG-PCSK9 (31-449)-ENLYFQ; Written as one chain; autocatalysis between 152 and 153 splits pro-domain and catalytic domain; also called procat PCSK9; PCSK9 31-449
Description: as §1

Experiment [3] deals with T1, PCSK9 V domain (450-692 of SEQ ID NO: 3).
Description: as §1
In experiment [4] the target is T2, PCSK9 ProCat (31-449 of SEQ ID NO: 3). The source holds these as a separate data set.
Description: as §1

Like-named read-outs stand apart in the source and are kept apart here.

B1: 31B12 (antibody, V domains shown)
VH: QVQLVESGGGVVQPGRSLRLSCAASGFTFSSYGMHWVRQAPGKGLEWVAIIWYDGSNKYYADSVKGRFTISRDNSKNTLYLQMNSLRAEDTAVYYCARRGGLAARPGGMDVWGQGTTVTVSS
VL: SYELTQPPSVSVSPGQTARITCSGDKLGDKYACWYQQKPGQSPVLVIYQNTKWPLGIPERFSGSKSGNTVTLTISGTQAMDEADYYCQAWDSSTVVFGGGTKLTVL
As to B1, the binding result in experiment [1] is listed as “no binding”.

B2: 22E2 (antibody, V domains shown)
VH: QVQLVESGGGVVQPGRSLRLSCAASGFTFSSFGMHWVRQAPGKGLEWVALIWNDGSNKYYADSVKGRFTISRDNSKNTLYLQMNSLRAEDTAVYYCARAIAALYYYYGMDVWGQGTTVTVSS
VL: QSVLTQPPSVSAAPGQKVTISCSGSSSNIGNNFVSWYQQLPGTAPKLLIYDYNKRPSGIPDRFSGSKSGTSATLGITGLQTGDEADYYCGTWDSSLSGYVFGTGTRVTVL
For B2, the binding result in experiment [2] is “binds”; in experiment [3], “no binding”.

B3: 13B5 (antibody, V domains shown)
VH: EVQLLESGGGLVQPGGSLRLSCAASGFTFSSYAMSWVRQAPGKGLEWVSTISGSGGRTYYADSVKGRFTISRDNSKNTLYLQMNSLRAEDTAVYYCAKEVGSPFDYWGQGTLVTVSS
VL: QSVLTQPPSVSAAPGQKVTISCSGSNSNIGNNYVSWYQQLPGTAPKLLIYDNNKRPSGIPDRFSGSNSGTSATLGITGLQTGDEADYYCGTWDSSLSAVVFGGGTKLTVL
Turning to B3, the binding result in experiment [4] was “no binding”.

B4: 16F12 (antibody, V domains shown)
VH: QVHLVESGGGVVQPGRSLRLSCAASGFTFNSFGMHWVRQAPGKGLEWVALIWSDGSDEYYADSVKGRFTISRDNSKNTLYLQMNSLRAEDTAVYYCARAIAALYYYYGMDVWGQGTTVTVSS
VL: QSVLTQPPSVSAAPGQKVTISCSGSSSNIGNNFVSWYQQLPGTAPKLLIYDYNKRPSGIPDRFSGSKSGTSATLGITGLQTGDEADYYCGTWDSSLSAYVFGTGTRVTVL
notes: lambda light chain
In the case of B4, the binding result in experiment [3] is “no binding”.

B5: 31G11 (antibody, V domains shown)
VH: QVQLVESGGGVVQPGRSLRLSCAASGFTFRSYGMHWVRQAPGKGLEWVALIWHDGSNTYYVDSVKGRFTISRDNSKNTLYLQMNSLRAEDTAVYYCARGIAVAYYYYGMDVWGQGTTVTVSS
VL: QSVLTQPPSVSAAPGQKVTISCSGSSSNIGNNFVSWYQQLPGTAPKLLIYDSNKRPSGIPDRFSGSKSGTSATLDITGLQTGDEADYYCGTWDSSLSAYVFGTGTKVTVL
In the case of B5, the binding result in experiment [3] is listed as “no binding”.

B6: 27A6 (antibody, V domains shown)
VH: QVHLVESGGGVVQPGRSLRLSCAASGFTFNSFGMHWVRQAPGKGLEWVALIWSDGSDKYYADSVKGRFTISRDNSKNTLYLQMNSLRAEDTAVYYCARAIAALYYYYGMDVWGQGTTVTVSS
VL: QSVLTQPPSVSAAPGQKVTISCSGSSSNIGNNFVSWYQQFPGTAPKLLIYDYNKRPSGIPDRFSGSKSGTSATLGITGLQTGDEADYYCGTWDSSLSSYVFGTGTRVTVL
With B6, the binding result is on record as “binds” in experiment [2] and “no binding” in experiment [3].

B7: 28D6 (antibody, V domains shown)
VH: QVQLVESGGGVVQPGRSLRLSCAASGFTFSSFGMHWVRQAPGKGLEWVALIWNDGSNKYYADSVKGRFTISRDNSKNTLYLQMNSLRAEDTAVYYCARAIAALYYYYGMDVWGQGTTVTVSS
VL: QSVLTQPPTVSAAPGQKVTISCSGSSSNIGNNFVSWYQQLPGTAPKLLIYDYNKRPSGIPDRFSGSKSGTSATLGITGLQTGDEADYYCGTWDSSLSGYVFGTGTRVTVL
Take B7: the binding result is given as “binds” in experiment [2] and “no binding” in experiment [3].

B8: 28B12 (antibody, V domains shown)
VH: QVQLVESGGGVVQPGRSLRLSCAASGFTFSSFGMHWVRQAPGKGLEWVALIWNDGSNKYYADSVKGRFTISRDNSKNTLYLQMNSLRAEDTAVYYCARAIAALYYYYGMDVWGHGTTVTVSS
VL: QSVLTQPPSVSAAPGQKVTISCSGSSSNIGNNFVSWYQQLPGTAPKLLIYDYNKRPSGIPDRFSGSKSGTSATLGITGLQTGDEADYYCGTWDSSLSGYVFGTGTRVTVL
Turning to B8, the values for the binding result in experiment [2] and in experiment [3] were “binds” and “no binding”, respectively.

B9: 20D10 (antibody, V domains shown)
VH: QIQLVQSGAEVKKPGASVKVSCKASGYPLTSYGISWVRQAPGQGLEWMGWISAYNGNTNYAQKVQGSVTMTTDTSTSTVYMELRSLRSDDTAVYYCARGYGMDVWGQGTTVTVSS
VL: QSALTQPASVSGSPGQSITISCTGTSSDVGGYNSVSWYQQYPGKPPKLKIYEVSNRPSGVSNRFSGSKSGNTASLTISGLQAEDEADYFCSSYTSTSMVFGGGTKLTVL
As to B9, the binding result in experiment [2] is “binds”; in experiment [3], “no binding”.

B10: 26E10.1 (antibody, V domains shown)
VH: QVQLVQSGAEVKKPGASVKVSCKASGYTLTSYGISWVRQAPGQGLEWMGWVSFYNGNTNYAQKLQGRGTMTTDPSTSTAYMELRSLRSDDTAVYYCARGYGMDVWGQGTTVTVSS
VL: QSALTQPASVSGSPGQSITISCTGTSSDVGGYNSVSWYQQHPGKAPKLMIYEVSNRPSGVFNRFSGSKSGNTASLTISGLQAEDEADYYCNSYTSTSMVFGGGTKLTVL
notes: subclone
With B10, the binding result in experiment [1] was “no binding”.

B11: 17C2.1 (antibody, V domains shown)
VH: QVQLVQSGAEVKKPGASVKVSCKASGYSFTSYGISWVRQAPGQGLEWMGWVSAYNGNTNYAQKFQGRVTMTTDTSTSTAYMELRSLRSDDTAVYYCARGYVMDVWGQGTTVTVSS
VL: QSALTQPASVFGSPGQSITISCTGTSSDVGAYNSVSWYQQHPGKAPKRMIYEVSNRPSGVSNRFSGSKSGNTASLTISGLQAEDEADYYCSSYTSTNMVFGGGTKLTVL
notes: subclone
On to B11, for which the binding result in experiment [1] was “no binding”.

B12: 3B6 (antibody, V domains shown)
VH: QVQLVQSGAEVKKPGASVKVSCKASGYTFTSYGISWVRQAPGQGLEWMGWISTYNGNTNYAQKVQGRVTMTTDTSTSTAYMELRSLRSDDTAVYYCARGYTRDYWGQGTLVTVSS
VL: QPVLTQPLFASASLGASVTLTCTLSSGYSSYEVDWYQQRPGKGPRFVMRVDTGGIVGSKGEGIPDRFSVLGSGLNRYLTIKNIQEEDESDYHCGADHGSGTNFVVVFGGGTKLTVL
Regarding B12, the binding result in experiment [2] was “binds”; in experiment [3] it was “no binding”.

B13: 23G1 (antibody, V domains shown)
VH: QVQLVQSGAEVKKPGASVKVSCKASGYTLTSYGISWVRQAPGQGLEWMGWVSFYNGNTNYAQKLQGRGTMTTDPSTSTAYMELRSLRSDDTAVYYCARGYGMDVWGQGTTVTVSS
VL: QSALTQPASVSGSPGQSITISCTGTSSDVGGYNSVSWYQQHPGKAPKLMIYEVTNRPSGVSNRFSGSKSGNTASLTISGLQAEDEADYYCNSYTSTSMVFGGGTKLTVL
As to B13, the results for the binding result in experiment [2] and in experiment [3] were “binds” and “no binding”, respectively.

B14: 31D1 (antibody, V domains shown)
VH: QIQLVQSGAEVKKPGASVKVSCKASGYTLTSYGISWVRQAPGQGLEWMGWISFYNGNTNYAQKVQGRVTMTTDTSTSTVYMELRSLRSDDTAVYFCARGYGMDVWGQGTTVTVSS
VL: QSALTQPASVSGSPGQSITISCTGTSSDVGGYNSVSWYQQHPGKPPKLMIYEVSNRPSGVSNRFSGSKSGNTASLTISGLQAEDEADYFCSSYTSTSMVFGGGTKLAVL
Turning to B14, the binding result in experiment [2] is reported as “binds”; in experiment [3], “no binding”.

(Values after patent US20130072665A1 (Amgen, published 2013).)
